Data reported in publication PMC11148069 (The EMBO Journal, 2024).

Tests used:
[1] = target: the molecule itself; assay: crystal structure; hNup35(173–248)·xhNup35-Nb1t complex; 0.05 M HEPES pH 6.5, 25% PEG400, 0.05 M NaCl, 0.01 M MgCl2
[2] = target: T1, xNup98-APD (residues 714–864), autoproteolytic domain of Xenopus tropicalis Nup98 (Xenopus tropicalis); assay: crystal structure; xNup98-APD(714–864) with xhNup98-Nb2i or xhNup98-Nb3i; 2.5% PEG6000, 25% PEG MME500, 100 mM Tris/HCl pH 9; settings: both partners purified
T1 construct: also called APD of Xenopus tropicalis xNup98; source: E. coli NEB Express, purified, untagged
T1 chain: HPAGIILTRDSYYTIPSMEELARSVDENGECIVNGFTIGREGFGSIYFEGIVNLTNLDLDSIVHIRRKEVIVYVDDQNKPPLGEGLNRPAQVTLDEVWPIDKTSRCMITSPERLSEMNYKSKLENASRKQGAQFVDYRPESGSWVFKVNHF

[3] = target: T2, Xenopus Nup98, endogenous (Xenopus laevis (egg extract, assumed), UniProt A0A8J1MFV7); assay: pull-down; (biotin)-Avi-SUMO^Eu1-nanobodies on streptavidin-agarose, incubated with HeLa lysate or soluble fraction of Xenopus egg extract, 40 min, 4 °C; eluted by SENP^EuB; SDS-PAGE/Coomassie, identities confirmed by mass spectrometry; settings: one partner purified
T2 construct: Nup98, the cut product of the Nup98–Nup96 fusion protein (Nup196); the egg extract contains the already cleaved entities; also called xNup98; source: endogenous, soluble fraction of Xenopus egg extract; also as recruited from the extract to NPCs

human Nup98, endogenous = target: T3, human Nup98, endogenous (human (endogenous in HeLa), UniProt P52948); assay: as above; settings: one partner purified
T3 construct: Nup98, the cut product of the Nup98–Nup96 fusion protein, human; also called hNup98; source: endogenous, HeLa lysate; also in NPCs of semi-permeabilized HeLa cells
T3 sequence (P52948 1-880): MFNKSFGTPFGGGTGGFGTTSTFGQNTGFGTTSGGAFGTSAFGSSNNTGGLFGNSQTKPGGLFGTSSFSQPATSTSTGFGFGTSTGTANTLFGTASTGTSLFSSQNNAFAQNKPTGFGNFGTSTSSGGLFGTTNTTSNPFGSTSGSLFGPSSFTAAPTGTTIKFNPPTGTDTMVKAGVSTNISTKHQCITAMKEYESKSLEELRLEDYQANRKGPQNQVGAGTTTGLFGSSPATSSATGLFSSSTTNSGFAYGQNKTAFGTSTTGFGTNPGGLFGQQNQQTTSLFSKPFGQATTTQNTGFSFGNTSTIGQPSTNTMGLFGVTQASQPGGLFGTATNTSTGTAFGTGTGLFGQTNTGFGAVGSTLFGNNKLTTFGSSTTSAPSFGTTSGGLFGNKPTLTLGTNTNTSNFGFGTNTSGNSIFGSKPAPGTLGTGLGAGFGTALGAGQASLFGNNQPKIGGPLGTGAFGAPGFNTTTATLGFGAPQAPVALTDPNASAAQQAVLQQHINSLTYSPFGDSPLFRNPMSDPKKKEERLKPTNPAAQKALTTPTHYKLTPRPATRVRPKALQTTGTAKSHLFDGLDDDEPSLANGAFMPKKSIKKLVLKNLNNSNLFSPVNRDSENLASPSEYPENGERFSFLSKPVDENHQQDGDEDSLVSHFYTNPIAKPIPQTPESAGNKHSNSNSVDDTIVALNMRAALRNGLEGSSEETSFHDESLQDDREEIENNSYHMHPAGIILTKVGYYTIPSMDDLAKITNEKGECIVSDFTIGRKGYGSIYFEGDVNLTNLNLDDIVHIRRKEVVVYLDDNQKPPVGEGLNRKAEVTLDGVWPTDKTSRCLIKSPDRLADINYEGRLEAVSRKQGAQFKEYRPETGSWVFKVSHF

[4] = target: T4, His14-NEDD8-tagged APD of xtNup98 (715–866) (Xenopus tropicalis, UniProt A0A1B8XZT4); assay: pull-down; His14-NEDD8-APD of xtNup98 immobilised on Ni2+ chelate matrix, incubated with xNup98-Nb1t or xhNup98-Nb2i, then xNup96(1–20)-RFP or xtNup88(2–500) added; eluted by NEDP1; SDS-PAGE/Coomassie; settings: both partners purified
T4 construct: held on the Ni2+ chelate matrix by the tag; the tag was cleaved by NEDP1 only for elution; also called Nup98-APD; immobilized APD; source: E. coli NEB Express, purified

[5] = target: T5, hNup35 (residues 173–248), RRM domain (human, UniProt Q8NFH5); assay: crystal structure; hNup35(173–248)·xhNup35-Nb1t complex; 0.05 M HEPES pH 6.5, 25% PEG400, 0.05 M NaCl, 0.01 M MgCl2; settings: both partners purified
T5 construct: Nup35 (also called Nup53 or MP44), human, RRM domain, residues 173-248; also called homodimeric RRM domain of Homo sapiens (h)Nup35; Nup35 RRM; source: E. coli NEB Express, purified, untagged

human Nup35, endogenous = target: T6, human Nup35, endogenous (Homo sapiens (HeLa), UniProt Q8NFH5); assay: immunostaining of cells or tissue; sfGFP-Nup107 HeLa cells, PFA-fixed and Triton X-100-permeabilized or unfixed and digitonin-semi-permeabilized; 35 nM Alexa Fluor 647-labelled nanobody, 30 min, RT; confocal microscopy; settings: one partner purified
T6 construct: Nup35, human; also called hNup35; source: endogenous, in NPCs of HeLa cells
T6 sequence (Q8NFH5 whole entry): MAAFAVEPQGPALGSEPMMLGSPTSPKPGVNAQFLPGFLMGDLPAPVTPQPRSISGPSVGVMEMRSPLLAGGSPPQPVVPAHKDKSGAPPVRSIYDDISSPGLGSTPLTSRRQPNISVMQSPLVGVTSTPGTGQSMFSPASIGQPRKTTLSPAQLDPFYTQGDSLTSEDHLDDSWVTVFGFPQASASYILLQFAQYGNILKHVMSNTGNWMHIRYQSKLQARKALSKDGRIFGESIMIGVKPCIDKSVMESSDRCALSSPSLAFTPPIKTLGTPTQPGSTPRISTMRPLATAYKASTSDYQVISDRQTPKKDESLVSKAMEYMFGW

[6] = target: T7, Xenopus Nup35, endogenous (Xenopus laevis (egg extract), UniProt Q6INW0); assay: immunostaining of cells or tissue; digitonin-semi-permeabilized sfGFP-Nup107 HeLa cells incubated 2 h at RT with buffer or Xenopus egg extract, energy mix and 35 nM fluorescent tracking nanobodies; Airyscan confocal microscopy; settings: one partner purified
T7 construct: Nup35 of Xenopus egg extract; also called xNup35; source: endogenous, from Xenopus egg extract, in newly assembled NPCs

[7] = target: T8, recombinant Xenopus Nup93 target (BLI) (Xenopus, UniProt Q7ZX96); assay: BLI; nanobodies (biotin-[PEG]3-maleimide on two ectopic cysteines) immobilised on High Precision Streptavidin sensors; target proteins at 30–100 nM; 25 °C; PBS pH 7.4, 0.02% Tween-20, 0.1% BSA; apparent KDs; settings: both partners purified
T8 construct: Nup93, Xenopus; the immunogen was the Nup93 α-solenoid domain; also called xNup93; source: E. coli NEB Express, purified
T8 sequence (Q7ZX96 whole entry, the tested form may be a part): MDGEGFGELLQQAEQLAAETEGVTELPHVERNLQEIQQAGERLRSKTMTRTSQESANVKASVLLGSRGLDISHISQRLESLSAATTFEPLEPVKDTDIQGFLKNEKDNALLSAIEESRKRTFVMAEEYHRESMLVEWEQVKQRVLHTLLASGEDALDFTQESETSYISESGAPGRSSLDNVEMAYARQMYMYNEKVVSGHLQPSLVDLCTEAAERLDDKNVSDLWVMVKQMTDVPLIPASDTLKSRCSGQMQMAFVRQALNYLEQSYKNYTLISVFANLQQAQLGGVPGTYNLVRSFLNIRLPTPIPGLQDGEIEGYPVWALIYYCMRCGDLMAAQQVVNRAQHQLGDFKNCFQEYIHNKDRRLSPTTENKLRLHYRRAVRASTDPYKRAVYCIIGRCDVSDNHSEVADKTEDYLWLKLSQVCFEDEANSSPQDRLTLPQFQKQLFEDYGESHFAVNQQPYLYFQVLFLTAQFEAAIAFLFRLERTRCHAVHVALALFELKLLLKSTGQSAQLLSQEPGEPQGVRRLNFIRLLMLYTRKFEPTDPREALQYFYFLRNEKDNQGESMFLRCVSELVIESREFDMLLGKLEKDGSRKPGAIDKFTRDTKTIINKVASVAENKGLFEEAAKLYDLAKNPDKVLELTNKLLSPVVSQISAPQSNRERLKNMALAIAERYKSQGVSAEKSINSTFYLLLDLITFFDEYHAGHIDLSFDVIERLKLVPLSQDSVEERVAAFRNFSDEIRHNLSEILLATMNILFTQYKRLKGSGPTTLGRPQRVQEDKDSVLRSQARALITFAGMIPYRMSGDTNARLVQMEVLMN

[8] = target: T9, recombinant human Nup93 target (BLI) (human, UniProt Q8N1F7); assay: as above; settings: both partners purified
T9 construct: Nup93, human; the immunogen was the Nup93 α-solenoid domain; also called hNup93; source: E. coli NEB Express, purified
T9 sequence (Q8N1F7 whole entry, the tested form may be a part): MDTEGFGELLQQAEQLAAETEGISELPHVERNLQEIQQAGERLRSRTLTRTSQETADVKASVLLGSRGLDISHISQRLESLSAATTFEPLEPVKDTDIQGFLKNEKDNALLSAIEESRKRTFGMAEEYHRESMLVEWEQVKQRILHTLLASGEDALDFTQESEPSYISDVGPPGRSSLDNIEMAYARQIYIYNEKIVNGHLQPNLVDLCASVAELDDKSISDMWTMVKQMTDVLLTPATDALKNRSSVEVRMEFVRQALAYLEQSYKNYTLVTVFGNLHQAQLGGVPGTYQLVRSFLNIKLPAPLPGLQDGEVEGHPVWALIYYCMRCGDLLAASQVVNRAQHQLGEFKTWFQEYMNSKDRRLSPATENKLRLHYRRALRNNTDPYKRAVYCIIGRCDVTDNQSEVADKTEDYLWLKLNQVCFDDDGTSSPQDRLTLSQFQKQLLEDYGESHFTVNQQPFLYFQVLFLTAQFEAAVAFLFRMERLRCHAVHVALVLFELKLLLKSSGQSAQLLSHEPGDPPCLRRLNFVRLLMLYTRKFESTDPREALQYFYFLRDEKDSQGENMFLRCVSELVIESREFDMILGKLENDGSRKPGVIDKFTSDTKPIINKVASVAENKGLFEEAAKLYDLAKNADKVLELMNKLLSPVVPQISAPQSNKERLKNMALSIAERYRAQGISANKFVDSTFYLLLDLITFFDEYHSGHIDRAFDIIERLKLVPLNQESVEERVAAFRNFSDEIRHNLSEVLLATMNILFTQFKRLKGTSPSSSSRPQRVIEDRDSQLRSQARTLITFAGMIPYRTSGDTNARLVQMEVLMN

[9] = target: T10, Xenopus Nup93, endogenous (Xenopus (endogenous in egg extract), UniProt Q7ZX96); assay: pull-down; (biotin)-Avi-SUMO^Eu1-nanobodies on streptavidin-agarose, incubated with HeLa lysate or soluble fraction of Xenopus egg extract, 40 min, 4 °C; eluted by SENP^EuB; SDS-PAGE/Coomassie, identities confirmed by mass spectrometry; settings: one partner purified
T10 construct: Nup93 of Xenopus egg extract; also called xNup93; source: endogenous, soluble fraction of Xenopus egg extract
T10 sequence (Q7ZX96 whole entry): as the sequence (Q7ZX96 whole entry, the tested form may be a part) above

human Nup93, endogenous = target: T11, human Nup93, endogenous (human (endogenous in HeLa), UniProt Q8N1F7); assay: as above; settings: one partner purified
T11 construct: Nup93, human; also called hNup93; source: endogenous, HeLa lysate
T11 sequence (Q8N1F7 whole entry): as the sequence (Q8N1F7 whole entry, the tested form may be a part) above

[10] = target: T12, xNup93(168–820), α-solenoid domain of Xenopus laevis Nup93 (Xenopus laevis, UniProt Q7ZX96); assay: cryo-EM structure; equimolar trimeric xNup93(168–820)·xhNup93-Nb4i·xNup93-Nb2t complex; 4.4 Å reconstruction; settings: both partners purified
T12 construct: also called Nup93 α-solenoid domain; source: E. coli NEB Express, purified, untagged
T12 sequence (Q7ZX96 168-820): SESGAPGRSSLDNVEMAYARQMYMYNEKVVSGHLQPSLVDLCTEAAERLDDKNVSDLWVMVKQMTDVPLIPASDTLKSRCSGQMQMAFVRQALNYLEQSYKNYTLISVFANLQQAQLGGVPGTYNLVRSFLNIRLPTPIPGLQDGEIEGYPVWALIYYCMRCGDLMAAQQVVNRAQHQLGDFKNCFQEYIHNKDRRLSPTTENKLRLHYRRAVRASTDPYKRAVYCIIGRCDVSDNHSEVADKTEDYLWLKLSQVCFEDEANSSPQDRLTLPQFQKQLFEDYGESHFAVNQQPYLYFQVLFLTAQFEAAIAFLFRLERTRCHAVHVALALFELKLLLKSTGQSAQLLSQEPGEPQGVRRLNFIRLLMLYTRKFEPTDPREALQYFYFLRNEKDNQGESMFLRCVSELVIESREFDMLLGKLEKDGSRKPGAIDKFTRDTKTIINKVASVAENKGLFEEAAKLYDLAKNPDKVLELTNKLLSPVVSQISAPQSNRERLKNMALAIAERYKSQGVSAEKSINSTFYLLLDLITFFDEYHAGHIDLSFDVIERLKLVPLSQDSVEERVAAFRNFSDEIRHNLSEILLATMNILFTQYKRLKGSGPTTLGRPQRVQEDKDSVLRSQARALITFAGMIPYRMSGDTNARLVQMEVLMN

[11] = target: T2, Xenopus Nup98, endogenous; assay: immunostaining of cells or tissue; digitonin-semi-permeabilized sfGFP-Nup107 HeLa cells incubated 2 h at RT with buffer or Xenopus egg extract, energy mix and 35 nM fluorescent tracking nanobodies; Airyscan confocal microscopy; settings: one partner purified

B1: hNup35 (residues 173–248), RRM domain (domain or fragment, human, UniProt Q8NFH5 173-248, looked up)
chain: DSWVTVFGFPQASASYILLQFAQYGNILKHVMSNTGNWMHIRYQSKLQARKALSKDGRIFGESIMIGVKPCIDKSV
notes: Nup35 (also called Nup53 or MP44), human, RRM domain, residues 173-248; also called homodimeric RRM domain of Homo sapiens (h)Nup35; Nup35 RRM; source: E. coli NEB Express, purified, untagged
binding result [1]: binds

B2: xhNup98-Nb2i (VHH)
VHH: QVQLVESGGGLAKPGGSLRLSCVATGTFRSMEDVGWYRQAPGKDRELVAEITTLGKVTYADSVKGRFTISRDDAKNAVYLQMSDLKSEDTAVYYCNIEADQTKGIGYVVYPYWGQGTRVTVSS
notes: they are in PDB 7NQA (complex with xNup98-APD); form of the crystal structure; also called xNup98-Nb2i; source: E. coli SHuffle, purified (Ni2+ chelate, NEDP1 protease elution, SEC)
binding result [2]: binds

B3: (biotin)-Avi-SUMO^Eu1-xhNup98-Nb2i (VHH)
VHH: QVQLVESGGGLAKPGGSLRLSCVATGTFRSMEDVGWYRQAPGKDRELVAEITTLGKVTYADSVKGRFTISRDDAKNAVYLQMSDLKSEDTAVYYCNIEADQTKGIGYVVYPYWGQGTRVTVSS
notes: as the VHH of m5; the tag was cleaved by SENP^EuB only for elution; source: E. coli SHuffle, purified; not shown: Avi (biotinylated), N-terminal, kept; SUMO^Eu1, N-terminal, kept
binding result [3]: binds
binding result (human Nup98, endogenous): binds

B4: xhNup98-Nb2i (as added in the binding assay of Fig. 11C) (VHH)
VHH: QVQLVESGGGLAKPGGSLRLSCVATGTFRSMEDVGWYRQAPGKDRELVAEITTLGKVTYADSVKGRFTISRDDAKNAVYLQMSDLKSEDTAVYYCNIEADQTKGIGYVVYPYWGQGTRVTVSS
notes: as the VHH of m5; source: E. coli SHuffle, purified
binding result [4]: binds

B5: xhNup35-Nb1t (VHH)
VHH: QVQLVESGGGLVQAGGSLRLSCVGTGNISSAYTMAWYRQAAGKEREVVAGILNGGSTHYADSVKGRFTISRDNAKNTVYLQMNSLQPEDTGVYCCHVVIESTRFVYDHYWGQGTRVTVSS
notes: they are in PDB 8OZB (complex with the human Nup35 RRM homodimer); form of the crystal structure; also called cross-specific anti-Nup35 nanobody; source: E. coli SHuffle, purified (Ni2+ chelate, NEDP1 protease elution, SEC)
binding result [5]: binds

B6: xhNup35-Nb1t, fluorophore-labelled (VHH)
VHH: QVQLVESGGGLVQAGGSLRLSCVGTGNISSAYTMAWYRQAAGKEREVVAGILNGGSTHYADSVKGRFTISRDNAKNTVYLQMNSLQPEDTGVYCCHVVIESTRFVYDHYWGQGTRVTVSS
notes: as the VHH of m12 with engineered cysteines; source: E. coli SHuffle, purified, labelled with maleimide dye
binding result (human Nup35, endogenous): binds
binding result [6]: binds

B7: xhNup98-Nb3i (VHH)
VHH: QVQLVESGGGLVQAGGSLRLSCAASGRTFSTYAMGWFRQAPGKEREFVSACSWSGGITRYADSVKGRFTISRDNAKNTVYLQMNSLKPEDTAVYYCASAASSAAYSGAYYYTSYYDYWGQGTQVTVSS
notes: they are in PDB 7NOW (complex with xNup98-APD); form of the crystal structure; source: E. coli SHuffle, purified (Ni2+ chelate, NEDP1 protease elution, SEC)
binding result [2]: binds

B8: xhNup93-Nb4i, biotinylated for BLI (VHH)
VHH: QVQLVESGGGVVQTGDSLMLSCTVSGHTIDNWAMGWFRQTPRKQREFVAAIDKRGTGAIYGNSVKGRFTVSRDNAKNMVYLRMNSLKPEDTAVYFCAVDQLNAGLGDVSYDYDYWGQGTQVTVSS
notes: as the VHH of m1 with two ectopic cysteines; source: E. coli SHuffle, purified
binding result [7]: binds
binding result [8]: binds

B9: (biotin)-Avi-SUMO^Eu1-xhNup93-Nb4i (VHH)
VHH: QVQLVESGGGVVQTGDSLMLSCTVSGHTIDNWAMGWFRQTPRKQREFVAAIDKRGTGAIYGNSVKGRFTVSRDNAKNMVYLRMNSLKPEDTAVYFCAVDQLNAGLGDVSYDYDYWGQGTQVTVSS
notes: as the VHH of m1; the tag was cleaved by SENP^EuB only for elution; source: E. coli SHuffle, purified; not shown: Avi (biotinylated), N-terminal, kept; SUMO^Eu1, N-terminal, kept
binding result [9]: binds
binding result (human Nup93, endogenous): binds

B10: xhNup93-Nb4i (VHH)
VHH: QVQLVESGGGVVQTGDSLMLSCTVSGHTIDNWAMGWFRQTPRKQREFVAAIDKRGTGAIYGNSVKGRFTVSRDNAKNMVYLRMNSLKPEDTAVYFCAVDQLNAGLGDVSYDYDYWGQGTQVTVSS
notes: they are in PDB 8CDS (unliganded nanobody) and PDB 7ZOX (complex with xNup93); form used for the cryo-EM complex; for the unliganded crystal it was expressed as a His14-bdSUMO fusion and cleaved; source: E. coli SHuffle, purified (Ni2+ chelate, NEDP1 protease elution, SEC)
binding result [10]: binds

B11: xNup93-Nb2t (VHH)
VHH: DVQLVESGGGLVQPGGSLRLSCVASGFTFSRVGMGWVRQAPGKGLEWVSDINASGGTGYADSVKGRFAISRDNAKNTLYLQMNRLKPEDTAVYYCAKMMDTAMIEAGIIKPAGQGTQVTVSS
notes: they are in the PDB entry of the unliganded nanobody (printed as 8CDT in the methods and 8CD7 in the data availability) and in PDB 7ZOX; purified untagged in the cryo-EM complex; for the unliganded crystal expressed as a His14-bdSUMO fusion and cleaved; also called tracking nanobody xNup93-Nb2t; source: E. coli SHuffle, purified
binding result [10]: binds

B12: xNup98-Nb1t (as added in the binding assay of Fig. 11C) (VHH)
VHH: QVQLVESGGGPVEAGGSLRLSCAASGRSFSNSVMAWFRQAPGKEREFLSVLNWSSGRTSIADSVKGRFTMSRDPAKITVYLQMNGLKPEDTAVYYCAASNRGSLYTLDNQNRYEDWGQGTQVTVSS
notes: they are in PDB 5E0Q (xNup98-APD·xNup98-Nb1t complex, Pleiner et al, 2015); also called tracking nanobody xNup98-Nb1t; source: E. coli SHuffle, purified
binding result [4]: binds

B13: xNup98-Nb1t, fluorophore-labelled (VHH)
VHH: QVQLVESGGGPVEAGGSLRLSCAASGRSFSNSVMAWFRQAPGKEREFLSVLNWSSGRTSIADSVKGRFTMSRDPAKITVYLQMNGLKPEDTAVYYCAASNRGSLYTLDNQNRYEDWGQGTQVTVSS
notes: as the VHH of m10 with engineered cysteines; source: E. coli SHuffle, purified, labelled with maleimide dye
binding result [11]: binds
